In series [1] the target is T1, human CD39, membrane-bound, as expressed on cells (human, UniProt P49961 1-510).
T1 construct: On OAW42 cells, on monocytes and B cells of patients, in patients' tumour tissue, and in tissues of human CD39 knock-in mice; also called mCD39
T1 sequence: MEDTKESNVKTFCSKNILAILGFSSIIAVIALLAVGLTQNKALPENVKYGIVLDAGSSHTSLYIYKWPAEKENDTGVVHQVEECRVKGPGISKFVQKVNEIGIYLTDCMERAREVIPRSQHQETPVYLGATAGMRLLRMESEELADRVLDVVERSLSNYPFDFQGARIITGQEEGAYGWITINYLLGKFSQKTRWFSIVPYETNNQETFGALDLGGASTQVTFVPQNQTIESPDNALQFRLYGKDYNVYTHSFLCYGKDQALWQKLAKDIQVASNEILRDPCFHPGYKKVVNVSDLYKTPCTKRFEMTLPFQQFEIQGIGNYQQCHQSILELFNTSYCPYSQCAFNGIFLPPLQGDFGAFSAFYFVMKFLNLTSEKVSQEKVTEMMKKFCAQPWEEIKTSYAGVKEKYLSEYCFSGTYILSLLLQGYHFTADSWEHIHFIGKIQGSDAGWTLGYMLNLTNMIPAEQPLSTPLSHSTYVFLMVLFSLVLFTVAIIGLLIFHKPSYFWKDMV
The experiment in a line: indirect response PD model (inhibition on Kin) fitted to free mCD39 on monocytes of treated patients; flow cytometry, free CD39 detected with a labelled antibody having the VH and VL of IPH5201. The source says:
PK/PD modelling and simulation were used to guide selection of doses. IPH5201 PK data from 45 patients and PD data of free membrane CD39 (mCD39) occupancy on monocytes from 43 patients were available. A population PK model was developed with IPH5201 PK best described as a 2-compartment model with parallel linear and saturatable kinetics.
An indirect response PD model (inhibition on Kᵢₙ) was then built to describe the relationship between IPH5201 concentrations and free mCD39 on monocytes (FIG. 10). The model accurately predicted CD39free+ of monocytes (%). […] The final indirect response model was then used for parametric simulation.
To assess free CD39 on monocytes and B cells, blood samples are spiked with an antibody having the VH and VL of IPH5201 and a mouse Fc domain and labelled with a fluorochrome. A second non-competing anti-CD39 monoclonal antibody labelled with a distinct fluorochrome is used to bind to a site on CD39 distinct from the capture antibody. CD14, CD19 and CD45 are detected by incubation with anti-CD14, CD19 and CD45 monoclonal antibodies each labelled with a distinct fluorochrome. Binding is detected by flow cytometry.
In general terms: A flow cytometer gives signals particle by particle.

The test system of series [2] is adenosine in MCA205 tumors. The experiment in a line: Intratumoral adenosine in MCA205 tumors in huCD39KI mice (LC-MS/MS). The series is classed as in vivo, human CD39 knock-in (huCD39KI) mice. As to conditions: molPH5201 20 mg/kg on day 7 and 14; tumors harvested day 16; vs isotype control; FIG. 4. As to the method: Expression of human CD39 in MCA205 tumors engrafted in human CD39 knock-in (huCD39KI) mice was assessed, followed by measure of intratumoral levels of adenosine after in vivo treatment with molPH5201, an antibody having the VH and VL or SEQ ID NO NOS: 8 and 9 and murine constant domains including an Fc domain with amino acid substitutions to eliminate binding to mouse Fcγ receptors, in order to evaluate the reduction of adenosine levels in tumors by molPH5201 can reduce in vivo.
(§1) Human CD39 expression on MCA205 tumors harvested on day 16 post engraftment was evaluated by IHC with EPR20627 clone from Abcam B&C. MCA205 tumors were engrafted in huCD39KI mice. On day 7 and 14 post tumor implantation, they were treated with molPH5201 (20 mg/kg) or isotype control. On day 16, tumors were harvested. Results are shown in FIG. 4, left hand panel, showing that a significant percentage of cells express CD39.
Quantification of adenosine in the harvested MCA205 tumors was performed using pre-column derivatization and liquid chromatography-mass spectrometry (LC-MS/MS) as described by Goodwin et al. 2019 Anal Biochem 568:78-88.

The target in series [3] is T2, CD39 enzymatic activity (Homo sapiens, UniProt P49961).
T2 construct: genetically modified to express human CD39 in place of its murine counterpart mouse CD39; from tissue; host or cells: tissues (MCA205 tumours) of huCD39KI mice treated with moIPH5201
T2 sequence (P49961 1-510): T1 sequence
The experiment in a line: Wachstein-Meisel CD39 enzyme assay on tissues of treated mice. The series is classed as in vivo, huCD39KI mice. As to conditions: tissues from molPH5201-treated animals; brown color indicates enzyme activity. How it is done:
as §1
Blockade of CD39 enzymatic activity was determined using the Wachstein-Meisel CD39 enzyme assay (brown color indicates enzyme activity).

Series [4] concerns MC38 cancer cell line. The experiment in a line: MC38 tumor growth in huCD39KI mice (gemcitabine +/- anti-PD-L1 +/- molPH5201). The series is classed as in vivo, human CD39 knock-in (huCD39KI) mice. How it is done:
In vivo experiments were performed in human CD39 knock-in (huCD39KI) mice, genetically modified to express human CD39 in place of its murine counterpart mouse CD39. These mice were sub-cutaneously (s.c.) engrafted with the MC38 cancer cell line. Mice bearing established tumors were dosed with isotype control (IC) antibodies, anti-human CD39 antibody (molPH5201, described above), gemcitabine chemotherapy and anti-mouse PD-L1 antibody (an antibody that binds murine PD-L1 having an Fc domain with amino acid substitutions to eliminate binding to mouse Fcγ receptors.
Male and female huCD39KI mice were engrafted subcutaneously (s.c.) with 1×10^6 MC38 cancer cells. Treatments were initiated after mouse randomization. Mice were treated twice a week for two weeks with gemcitabine (25 mg/kg) or PBS (at day 8, 11, 15 and 18 after cell engraftment) and once a week for four weeks with either anti-human CD39 antibody (molPH5201) or the corresponding isotype control (IC) antibody (400 μg/mouse).
Randomization of mice into four groups was performed on day 7 post tumor cell engraftment, at a mean tumor volume of 72 mm^3±27 mm^3 with individual tumor volumes comprised between 37 and 130 mm^3.
(§2) Male and female huCD39KI mice were engrafted s.c. with 1×10^6 MC38. Treatments were initiated after mouse randomization. Mice were treated twice a week for two weeks with gemcitabine (25 mg/kg) or PBS, twice a week for three weeks with either anti-mouse PD-L1 antibody or the corresponding IC antibody (200 μg/mouse) and once a week for four or five weeks depending on the experiment with either anti-human CD39 antibody (molPH5201) or the corresponding IC antibody (400 μg/mouse). Mouse randomization into five groups was performed on day 7 post tumor cell engraftment at a mean tumor volume of 62 mm^3±23 mm^3 with individual tumor volumes comprised between 31 and 117 mm^3.
as §2, with “As in Experiment 1, male” for “Male”, “64” for “62”, “115” for “117”
as §2, with “As in Experiments 1 and 2, male” for “Male”, “engraftment,” for “engraftment”, “74 mm^3±21” for “62 mm^3±23”, “40” for “31”, “121” for “117”
The three experiments were pooled and results are shown in FIG. 9, showing Tumor growth of MC38 tumor in huCD39KI mice post treatment with gemcitabine+/−anti-PD-L1+/−molPH5201. MC38 tumor-bearing huCD39KI mice were randomized on day 7 and then treated as indicated with 25 mg/kg ip of gemcitabine or PBS, 200 μg ip of anti-mouse PD-L1 antibody or corresponding isotype control antibody and with 400 μg iv of molPH5201 or corresponding IC antibody. Graphs show tumor growth in each individual (n=31/group). CR: Complete Response.

Entries after “also recorded” stand apart in the source; their conditions may differ.

B1: IPH5201 (humanized anti-CD39 antibody having the respective heavy and light chain amino acid sequences of SEQ ID NOS: 10 and 11) (antibody, human IgG1, kappa, V domains shown)
VH: QVQLVQSGAEVKKPGASVKVSCKASGYTFTDYNMHWVRQAPGQRLEWIGYIVPLNGGSTFNQKFKGRATITVDTSARTAYMELSSLRSEDTAVYYCARGGTRFAYWGQGTLVTVSS
VL: DIVMTQSPDSLAVSLGERATINCRASESVDNFGVSFMYWFQQKPGQPPKLLIYGASNQGSGVPDRFSGSGSGTDFTLTISSLQAEDVAVYYCQQTKEVPYTFGGGTKVEIKR
What is called IC50 is the concentration at which inhibition is half-maximal. For the molecule B1, it took 2.44 µg/mL to reach half-maximal inhibition in series [1] (IC50).

B2: molPH5201: antibody having the VH and VL of SEQ ID NOS: 8 and 9 and murine constant domains, Fc substituted to eliminate mouse Fcγ receptor binding (antibody, V domains shown)
VH: B1 VH
VL: DIVMTQSPDSLAVSLGERATINCRASESVDNFGVSFMYWFQQKPGQPPKLLIYGASNQGSGVPDRFSGSGSGTDFTLTISSLQAEDVAVYYCQQTKEVPYTFGGGTKVEIK
modifications: murine constant domains, Fc-silenced
As for B2, the “intratumoral adenosine compared to control” value in series [2] is “less intratumoral adenosine”. The “CD39 enzymatic activity in tissues” value in series [3] is “decreased CD39 enzymatic activity”. Moreover, the “number of complete response when combined with gemcitabine, in comparison to gemcitabine alone” value in series [4] (Experiment 1 (FIG. 6)) is reported as “increased the number of complete response”. Also, the “improvement of anti-tumor effect over the comparator named in the value” is listed as “Neither anti-PD-L1 nor molPH5201 improved the anti-tumor effect of gemcitabine; also recorded: did not statistically significantly improve gemcitabine+anti-PD-L1 efficacy” in series [4] (Experiment 1 (FIG. 6), triple vs gemcitabine alone p<0.05 when control group was excluded) and “Neither anti-PD-L1 nor molPH5201 improved the anti-tumor effect of gemcitabine; also recorded: did not statistically significantly improve gemcitabine+anti-PD-L1 efficacy” in series [4] (Experiment 3 (FIG. 8), triple vs gemcitabine alone marginally significant p<0.1, control group excluded). Further, the “improvement of anti-tumor efficacy over the comparator named in the value” in series [4] (Experiment 2 (FIG. 7), difference marginally significant, p<0.1, control group excluded) was “tended to improve the anti-tumor efficacy of the combination gemcitabine+anti-PD-L1”; in series [4] (pooled analysis of three experiments (FIG. 9), n=31/group, p<0.05 where improved, linear-mixed effect model), “neither anti-PD-L1 nor molPH5201 improved the anti-tumor effect of gemcitabine; also recorded: improved the anti-tumor efficacy of the gemcitabine+anti-PD-L1 combination”. Besides, in series [4] (Experiment 3 (FIG. 8)), the “number of complete response (CR) on combination” value is listed as “did not increase the number of CR”. Also, in series [4] (gemcitabine +/- molPH5201 experiment (FIG. 5)), the “improvement of the anti-tumor efficacy of gemcitabine” value is “did not improve the anti-tumor efficacy of gemcitabine”. The “tumor growth compared to the control group” value in series [4] (gemcitabine +/- molPH5201 experiment (FIG. 5), gemcitabine 25 mg/kg, molPH5201 400 μg/mouse, p<0.001 where significant) is “did not modify tumor growth”.

(Values after patent US20260191954A1, “COMPOSITIONS AND METHODS FOR NEOADJUVANT TREATMENT IN CANCER” (INNATE PHARMA, priority 2022, published 2026).)
